The supplement of paper PMC10567573

B1: TRIM43 (parent)
chain: YQEIFQQLQRSWVKMDQKSKHLKE
B2: SERPINB5 (parent)
chain: FPESETKECPFRVNKVCGAACSSK

Variants of: B1
Test: protein stability index of a GFP-peptide fusion (GPS, HEK-293T) (PSI 1-6); higher = more stable
Settings: c terminus: a fixed tail appended
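Further: lentivirally expressed fusions sorted by FACS into six bins by GFP to DsRed ratio, PSI derived from sequencing read proportions per bin multiplied by bin number.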

Protein stability index of substitutions, site by site:
Y1: F 1.58, G 3.82, D 4.53, Q 3.35
K23: T 2.14, R 1.22, L 1.66, S 2.15
D16: F 3.17
H21: T 2.28, Q 2.28, Y 2.27, M 2.5, S 2.37, V 1.79, G 2.33, I 2.09
E3: I 2.29, P 1.69
F5: T 3.29, Q 3.7, G 3.31, C 2.69, S 3.39, P 2.79
Q17: H 2.12, P 2.21, T 2.62, N 2.89, W 1.72, R 2.19, I 1.73, M 1.73
S19: E 2.29, C 1.99, N 2.35, Y 3, Q 2.14
V13: H 2.48, N 2.22, G 2.79, F 2.07, M 1.9
Q2: A 1.84, I 1.52, L 1.67, M 1.82, H 1.58
W12: C 2.34, S 2.55, L 2.4, Y 2.18, Q 2.65, N 2.81
K20: H 2.19, L 1.82, M 2.24, E 2.85, S 1.85, W 2.42, C 1.76
I4: S 1.94, M 1.51
Q7: M 2.13, S 2.89, A 1.87, F 1.52
S11: P 2.3, A 1.34, T 1.81, R 1.82, Y 2.65, M 1.93, V 1.63, D 2.68
Q6: W 2.03, S 2.19, I 2.27, K 1.85, A 2.04, P 2.28, E 2.95
L8: G 2.74, Q 2.88, F 2.62
R10: P 2.55, I 2.95, A 2.74, S 2.71, Q 2.35, M 2.57, V 2.26
E24: P 1.81, Y 1.95, F 1.92, D 2.48, S 2.78
K14: P 2.19, A 2.1, H 2.04, W 2.61, T 2.25, M 2.37, I 1.86
M15: F 1.99, H 2.29, R 2.5
L22: I 2.21, S 3.29, P 2.94, G 2.6, D 3.28, N 2.53, E 3.27
Q9: C 1.4, S 2.58, A 1.83, W 2.39, E 2.72, G 2.59, P 2.73, T 2.19, Y 2.67, H 1.95
K18: P 2.1, G 2.4, M 1.64, T 2.71, E 2.46, L 2.31

Variants of: B2
Test: as above
Settings: c terminus: a fixed tail appended

Protein stability index of substitutions, site by site:
A20: V 2.67, M 2.01, T 3.22, L 2.79, N 3.18, K 2.26, E 2.84, Y 2.27, Q 2.09, C 2.17, F 1.95, H 2.58, W 1.94, R 2.53, I 2.32, D 2.69, G 3.22, P 2.49, S 2.29
N14: L 2.35, P 2.47, R 2.17, I 1.96, G 2.02, S 2.45, K 2.07, V 2.08, W 2.4, Y 2.19, T 2.5, F 2.15, M 2.98, H 3.27, Q 3.29
V16: S 2.28, E 3.12, H 2.17, C 2.24, F 2.57, T 2.71, R 2.8, D 2.89, Q 2.67, G 2.9, P 2.11, L 1.86, I 2.04, A 3.03, K 2.61, M 2.18, Y 2.14, N 2.82, W 2.49
K15: M 2.38, W 1.32, I 2.12, P 2.58, S 2.32, Q 2.52, F 2.12, V 2.1, H 4.17, T 2.48, G 2.22, R 2.76, E 2.83, D 3.01, Y 2.4, A 3.17, C 3.04, N 2.24, L 2.61
A19: H 2.51, S 2.92, E 2.5, Y 2.29, R 2.52, W 2.08, K 2.51, P 2.08, T 2.62, V 2.41, L 2.96, G 2.81, Q 2.7, M 2.36, N 2.61, I 2.63, D 3.03, F 2.02
G18: R 2.43, N 2.59, S 3.42, F 2.09, Q 2.66, H 2.59, K 3.24, M 2.56, Y 2.09, W 3.39, P 2.42, T 2.35, V 1.75, A 2.65, C 2.54, D 2.89, I 2.1, L 2.05, E 2.6
C17: E 2.98, H 2.45, L 2.47, P 2.29, K 3.12, T 2.68, I 3.16, F 2.79, D 2.81, G 2.91, Q 2.4, A 3.29, Y 2.51, S 3.13, V 2.88, M 2.49, R 2.48, W 1.76, N 2.99
C21: H 2.44, Q 2.22, F 1.94, V 2.56, I 2.04, P 2.23, D 2.81, M 2.35, T 2.62, E 3.19, G 2.69, N 2.44, L 2.2, W 1.38, Y 2.51, R 2.56, S 2.9, K 3.19, A 2.76
S23: H 3.33, V 2.42, K 2.97, N 2.96, W 1.93, G 2.4, Q 2.35, L 2.4, M 2.39, F 2.23, P 2.39, E 3.16, A 2.41, T 2.19, D 2.78, R 2.02, I 2.26, C 2.66, Y 2.29
K24: M 2, Q 2.45, H 2.81, S 2.25, C 3.31, W 1.46, P 2.21, D 2.94, Y 2.25, L 2.13, F 2.02, I 1.88, R 2.05, G 2.57, V 2.17, E 2.96, N 1.89, A 2.42, T 2.48
S22: Y 2.46, C 2.27, F 1.66, N 2.62, M 2.4, E 2.57, K 2.39, Q 2.66, D 2.66, R 2.36, W 2.03, L 1.93, G 3.07, P 2.67, I 2.27, V 2.1, T 2.39, H 2.55, A 3.52
